Substitutions are numbered along the chain they refer to. Names may count otherwise.

Sequences and labels used below:
T1: PlxnA2_(1-4) F275N (mouse, UniProt P70207 35-703, F275N)
T1 sequence (looked up): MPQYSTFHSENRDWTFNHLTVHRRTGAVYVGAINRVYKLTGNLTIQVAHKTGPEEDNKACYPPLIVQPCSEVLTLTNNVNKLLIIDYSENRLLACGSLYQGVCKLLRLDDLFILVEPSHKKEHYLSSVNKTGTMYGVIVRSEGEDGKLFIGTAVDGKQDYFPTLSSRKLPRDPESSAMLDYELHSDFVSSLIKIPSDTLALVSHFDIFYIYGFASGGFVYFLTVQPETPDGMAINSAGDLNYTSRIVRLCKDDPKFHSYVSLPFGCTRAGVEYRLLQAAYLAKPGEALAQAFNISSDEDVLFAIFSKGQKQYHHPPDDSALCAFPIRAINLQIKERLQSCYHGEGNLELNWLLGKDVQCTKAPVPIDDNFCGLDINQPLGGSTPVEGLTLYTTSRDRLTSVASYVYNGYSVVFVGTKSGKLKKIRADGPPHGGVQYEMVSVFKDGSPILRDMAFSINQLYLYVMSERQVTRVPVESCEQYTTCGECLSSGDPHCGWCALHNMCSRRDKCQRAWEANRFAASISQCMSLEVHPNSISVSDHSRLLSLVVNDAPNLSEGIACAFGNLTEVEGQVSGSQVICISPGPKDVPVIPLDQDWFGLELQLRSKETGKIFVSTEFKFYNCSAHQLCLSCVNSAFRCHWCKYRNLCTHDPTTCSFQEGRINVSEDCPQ

T2: Sema3AS-F with Nrp1_(1-4) (combination in the experiment with EDTA) (mouse, UniProt O08665 21-555; P97333 22-586)
T2 sequence (looked up) 1: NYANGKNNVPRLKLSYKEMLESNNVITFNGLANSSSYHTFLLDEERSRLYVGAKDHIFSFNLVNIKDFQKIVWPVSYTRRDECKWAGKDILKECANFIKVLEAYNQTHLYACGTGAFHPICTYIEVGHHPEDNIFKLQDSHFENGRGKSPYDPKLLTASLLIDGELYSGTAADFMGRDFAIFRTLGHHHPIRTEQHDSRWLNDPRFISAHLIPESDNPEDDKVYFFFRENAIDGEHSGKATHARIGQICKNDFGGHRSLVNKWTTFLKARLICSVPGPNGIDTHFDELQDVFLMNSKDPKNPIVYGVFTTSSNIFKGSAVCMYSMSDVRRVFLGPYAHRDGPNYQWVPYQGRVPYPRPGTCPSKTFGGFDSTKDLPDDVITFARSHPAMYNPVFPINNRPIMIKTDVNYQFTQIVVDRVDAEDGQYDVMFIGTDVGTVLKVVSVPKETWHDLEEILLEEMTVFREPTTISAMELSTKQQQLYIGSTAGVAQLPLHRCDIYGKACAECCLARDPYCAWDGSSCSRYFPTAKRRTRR
T2 sequence (looked up) 2: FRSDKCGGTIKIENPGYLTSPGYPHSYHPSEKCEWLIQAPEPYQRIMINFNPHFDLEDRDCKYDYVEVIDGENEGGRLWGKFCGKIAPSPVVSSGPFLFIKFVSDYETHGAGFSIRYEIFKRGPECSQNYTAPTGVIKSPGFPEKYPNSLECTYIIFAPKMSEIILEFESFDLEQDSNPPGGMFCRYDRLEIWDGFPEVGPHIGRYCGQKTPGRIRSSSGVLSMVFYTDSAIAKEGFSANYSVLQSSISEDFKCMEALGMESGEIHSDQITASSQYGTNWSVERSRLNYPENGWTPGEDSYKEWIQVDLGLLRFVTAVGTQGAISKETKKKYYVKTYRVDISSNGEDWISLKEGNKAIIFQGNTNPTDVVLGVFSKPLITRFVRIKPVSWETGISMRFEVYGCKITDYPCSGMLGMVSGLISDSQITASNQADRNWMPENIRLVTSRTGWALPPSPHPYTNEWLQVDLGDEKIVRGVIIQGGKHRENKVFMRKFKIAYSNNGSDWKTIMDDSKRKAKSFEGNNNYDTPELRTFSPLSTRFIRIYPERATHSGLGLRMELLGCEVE

T3: Nrp1_(1-4) P73A H74S (mouse, UniProt P97333 22-586, P73A | H74S)
T3 sequence (looked up): T2 sequence (looked up) 2 with P52A, H53S

B1: Nrp1_(1-4) (mouse Nrp1 residues 22-586) (domain or fragment, UniProt P97333 22-586, looked up)
chain: T2 sequence (looked up) 2
B2: PlxnA2_(1-4) (mouse PlxnA2 residues 35-703) (domain or fragment, UniProt P70207 35-703, looked up)
chain: T1 sequence (looked up) with N241F
B3: Sema3AS-P (mouse Sema3A residues 21-568, furin site mutated R551A and R555A) (domain or fragment, UniProt O08665 21-568, looked up)
chain: NYANGKNNVPRLKLSYKEMLESNNVITFNGLANSSSYHTFLLDEERSRLYVGAKDHIFSFNLVNIKDFQKIVWPVSYTRRDECKWAGKDILKECANFIKVLEAYNQTHLYACGTGAFHPICTYIEVGHHPEDNIFKLQDSHFENGRGKSPYDPKLLTASLLIDGELYSGTAADFMGRDFAIFRTLGHHHPIRTEQHDSRWLNDPRFISAHLIPESDNPEDDKVYFFFRENAIDGEHSGKATHARIGQICKNDFGGHRSLVNKWTTFLKARLICSVPGPNGIDTHFDELQDVFLMNSKDPKNPIVYGVFTTSSNIFKGSAVCMYSMSDVRRVFLGPYAHRDGPNYQWVPYQGRVPYPRPGTCPSKTFGGFDSTKDLPDDVITFARSHPAMYNPVFPINNRPIMIKTDVNYQFTQIVVDRVDAEDGQYDVMFIGTDVGTVLKVVSVPKETWHDLEEILLEEMTVFREPTTISAMELSTKQQQLYIGSTAGVAQLPLHRCDIYGKACAECCLARDPYCAWDGSSCSRYFPTAKARTRAQDIRNGDPLTHCS
B4: Sema3AS-P L353N P355S (domain or fragment, mouse, UniProt O08665 21-568, looked up)
chain: B3 chain with L333N, P335S

Test in all cases: SPR
(In general: SPR reads the build-up and loss of mass on a sensor chip optically.)

One assay deals with T1, PlxnA2_(1-4) F275N.
Assay [1] concerns the target T2, Sema3AS-F with Nrp1_(1-4) (combination …).
The next assay deals with T3, Nrp1_(1-4) P73A H74S.
Assay [2] concerns the target B1.

Take B1: the binding result with PlxnA2_(1-4) F275N is “binds”. Consider B2, for which the binding result in assay [1] is “binds”. For B3, the binding result with Nrp1_(1-4) P73A H74S is “binds”. For B4, in assay [2], the binding result is given as “binds”.

Values taken from article PMC3590443 (Nature structural & molecular biology, 2012).
